From US20190040156A1 (Eli Lilly, published 2019) come the findings set out here.

What is called Kd is a measure of binding affinity in units of concentration. By koff is commonly meant the rate constant with which the complex falls apart. A high value points to fast dissociation. A word on the kon: it is the second-order rate constant of association.

Assay [1] has as its target T1, human complement component C1q (human, UniProt P02745 23-245; P02746 28-253; P02747 29-245).
T1 construct: Bought protein; also called human C1q
As to the kind of experiment: ELISA, antibody coated on the plate (10 to 0.19 µg/mL), human C1q at 10 µg/mL, anti-C1q-HRP detection. On the technique in general: ELISA stands for enzyme-linked immunosorbent assay.
Description: Plates are incubated overnight at 4° C. with coating agent (to coat wells with antibody) followed with two hours of blocking (casein, 200 μL) at room temperature and then three washes with wash buffer (1×TBE with 0.05% Tween 20).
100 μL of human C1q (10 μg/mL) (MS Biomedical) in casein blocking reagent is added to each well and plates are incubated for 3 hours at room temperature. Following incubation plates are washed three times followed by addition of 100 μL/well (at 1:800 dilution) of Sheep anti-human C1q-HRP (Abcam #ab46191) in casein blocker. Plates are incubated for 1 hour at RT. Following incubation, plates are washed 6 times with wash buffer, and 100 μL/well of TMB Substrate (Pierce) is added to each well. Plates are incubated for 7 minutes followed by addition of 100 μL of 1.0N HC1 to each well to stop the reaction. Optical density is immediately measured using a colorimetric microplate reader set to 450 nm.

For another assay, the target named is T2, human FcγRI (CD64) (human, UniProt P12314 16-288, limits assumed).
T2 construct: Soluble analyte in SPR
T2 sequence (P12314 16-288 limits assumed): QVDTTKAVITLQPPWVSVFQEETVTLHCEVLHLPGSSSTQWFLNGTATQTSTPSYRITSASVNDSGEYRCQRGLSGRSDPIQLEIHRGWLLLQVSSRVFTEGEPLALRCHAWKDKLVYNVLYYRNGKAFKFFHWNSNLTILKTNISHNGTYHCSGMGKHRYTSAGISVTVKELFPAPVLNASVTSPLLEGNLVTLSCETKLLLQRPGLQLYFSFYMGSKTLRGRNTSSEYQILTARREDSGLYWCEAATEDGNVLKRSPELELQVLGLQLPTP
In words: SPR, Biacore T200, antibody captured on protein A, FcγR as analyte, 37 °C, N=3. As to the method: (§1) A CM5 chip (Biacore P/N BR-100-50) containing immobilized protein A (generated using standard NHS-EDC amine coupling) on all four flow cells is used to employ a capture methodology. IgG bispecific antibody samples are prepared by dilution of approximately 5 μg/mL into running buffer and approximately 300 RU is captured on the flow cells. Human FcγRI (produced from transient CHO cells and purified using IMAC and size exclusion chromatography) is prepared at final concentrations of 200.00, 100.00, 50.00, 25.00, 12.50, 6.25, 3.12, 1.56, and 0.78 nM by two-fold serial dilution into running buffer. Human FcγRIIa, FcγRIIb and FcγRIIIa (produced from transient CHO cells and purified using IMAC and size exclusion chromatography) are prepared at final concentrations of 10,000.0, 5,000, 2,500, 1,250, 625, 313, 157, 78, and 39 nM by two-fold serial dilution into running buffer.
(§2) Each analysis cycle consists of: (1) capturing antibody samples on flow cells; (2) injection of each human FcγRI, FcγRIIa, FcγRIIb and FcγRIIIa concentration over the flow cells at 40 μL/min for 60 seconds followed by return to buffer flow for 120 seconds to monitor dissociation phase; (3) regeneration of chip surfaces with injection of 10 mM glycine, pH 2.0. for 30 seconds at 50 μL/min over all flow cells; and (4) equilibration of chip surfaces with a 50 μL (60-sec) injection of HBS-EP+ running buffer. Data are processed using standard reference-subtracted method fit to a 1:1 binding model using Biacore T200 […] Evaluation software, version 1.0, to determine the equilibrium dissociation constant (KD) which is calculated from the relationship KD=koff/kₒₙ, and is in molar units.
For orientation: Surface plasmon resonance follows binding to a sensor surface in real time, without labels.

Another assay concerns the target T3, human FcγRIIIa (CD16a) (human, UniProt P08637 17-208).
T3 construct: Soluble analyte in SPR
The assay is described as above. As to the method:
as §1, §2

The target of the next assay is T4, human FcγRIIb (CD32b) (human, UniProt P31994 43-217, limits assumed).
T4 construct: Soluble analyte in SPR
T4 sequence (looked up): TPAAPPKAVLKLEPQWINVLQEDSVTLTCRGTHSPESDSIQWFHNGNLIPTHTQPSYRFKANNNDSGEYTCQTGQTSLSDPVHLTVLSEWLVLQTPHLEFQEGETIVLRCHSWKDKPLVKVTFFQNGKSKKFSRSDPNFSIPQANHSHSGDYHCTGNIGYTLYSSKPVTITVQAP
The description is as above. Here is the method:
as §1, §2

The next assay addresses T5, human FcγRIIa (CD32a) (human, UniProt P12318 34-217, limits assumed).
T5 construct: Soluble analyte in SPR
T5 sequence (looked up): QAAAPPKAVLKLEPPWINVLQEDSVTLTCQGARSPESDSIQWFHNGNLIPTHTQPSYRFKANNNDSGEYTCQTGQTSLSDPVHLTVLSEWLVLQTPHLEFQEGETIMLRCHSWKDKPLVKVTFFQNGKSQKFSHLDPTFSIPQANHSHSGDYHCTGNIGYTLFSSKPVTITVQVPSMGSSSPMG
The description is as above. Here is the method:
as §1, §2

Assay [2] deals with non-cleavable form of human membrane TNFα on CHO cells (human, UniProt P01375 1-233). In words: cell-based or functional assay.
non-cleavable form of human membrane TNFα on CHO cells, sequence (P01375 whole entry): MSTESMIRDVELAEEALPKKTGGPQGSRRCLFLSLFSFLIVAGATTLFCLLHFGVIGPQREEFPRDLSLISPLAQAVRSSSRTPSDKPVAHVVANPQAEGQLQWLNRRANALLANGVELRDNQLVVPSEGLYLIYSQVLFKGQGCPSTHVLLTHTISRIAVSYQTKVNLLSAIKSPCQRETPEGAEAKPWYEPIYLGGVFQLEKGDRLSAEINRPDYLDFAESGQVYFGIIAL
In assay [3] the target is T6, human IL-23 (human, UniProt Q9NPF7 20-189; P29460 23-328).
T6 sequence (looked up) 1: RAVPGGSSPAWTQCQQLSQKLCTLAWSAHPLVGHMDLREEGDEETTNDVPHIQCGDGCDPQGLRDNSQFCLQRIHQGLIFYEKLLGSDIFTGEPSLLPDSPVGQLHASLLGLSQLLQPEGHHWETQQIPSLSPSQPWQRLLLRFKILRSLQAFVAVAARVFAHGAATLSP
T6 sequence (looked up) 2: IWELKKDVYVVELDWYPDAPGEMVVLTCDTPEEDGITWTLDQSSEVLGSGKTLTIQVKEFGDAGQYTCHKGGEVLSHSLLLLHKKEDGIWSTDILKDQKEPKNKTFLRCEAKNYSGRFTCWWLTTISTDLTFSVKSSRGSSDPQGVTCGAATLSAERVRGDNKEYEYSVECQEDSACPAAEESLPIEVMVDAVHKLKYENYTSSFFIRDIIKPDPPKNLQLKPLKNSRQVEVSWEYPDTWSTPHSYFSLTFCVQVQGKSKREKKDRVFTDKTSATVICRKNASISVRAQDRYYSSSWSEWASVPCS
In words: cell-based or functional assay.

For assay [4], the target named is T7, human TNFα (human, UniProt P01375 77-233). As to the kind of experiment: cell-based or functional assay.
T7 sequence (P01375 77-233 limits assumed): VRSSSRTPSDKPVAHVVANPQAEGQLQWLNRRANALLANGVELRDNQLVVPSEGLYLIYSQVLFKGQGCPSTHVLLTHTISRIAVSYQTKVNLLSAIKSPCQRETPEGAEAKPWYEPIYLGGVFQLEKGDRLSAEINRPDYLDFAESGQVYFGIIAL
The target in assay [5] is T6, human IL-23. In words: SPR, Biacore T200, antibody captured on protein A, antigen as analyte, 37 °C, 1:1 model, n=3. Here is the method: (§3) A CM4 chip (Biacore P/N BR-100534) containing immobilized protein A (generated using standard NHS-EDC amine coupling) on all four flow cells is used to employ a capture methodology. IgG bispecific antibody samples are prepared by dilution of 5 μg/mL into running buffer and approximately 100-150 RU is captured on the flow cells. […] Human TNFα are prepared at final concentrations of 50.0, 25.0, 12.5, 6.25, 3.12, 1.56, 0.78, 0.39, 0.19 and 0 (blank) nM by dilution into running buffer.
(§4) Each analysis cycle consists of (1) capturing antibody samples on flow cells (Fc3); (2) injection of each human IL-23 concentration over the flow cells at 80 μL/min for 200 seconds followed by return to buffer flow for 900 seconds to monitor dissociation phase; (3) injection of each human TNFα concentration over the flow cells at 80 µL/min for 200 seconds followed by return to buffer flow for 900 seconds to monitor dissociation phase; (4) regeneration of chip surfaces with injection of 10 mM glycine, pH 2.0, for 30 seconds at 50 μL/min over all flow cells; and (5) equilibration of chip surfaces with a 50 μL (60-sec) injection of HBS-EP+ running buffer. Data are processed using standard reference-subtracted method fit to a 1:1 binding model using Biacore T200 Evaluation software, version 1.0, to determine the association rate (kₒₙ, M⁻¹s⁻¹ units), dissociation rate (koff, s⁻¹ units), and RUₘₐₓ (RU units). The equilibrium dissociation constant (KD) is calculated from the relationship KD=koff/kₒₙ, and is in molar units.

Assay [6] deals with T7, human TNFα. The assay is described as above. As to the method:
as §3, §4

The target in assay [7] is human FcγRIIIa (V158) on Jurkat NFAT-FF reporter cells (human, UniProt P08637 17-254). In words: cell-based or functional assay.
human FcγRIIIa (V158) on Jurkat NFAT-FF reporter cells, sequence (P08637 17-254 F176V limits assumed): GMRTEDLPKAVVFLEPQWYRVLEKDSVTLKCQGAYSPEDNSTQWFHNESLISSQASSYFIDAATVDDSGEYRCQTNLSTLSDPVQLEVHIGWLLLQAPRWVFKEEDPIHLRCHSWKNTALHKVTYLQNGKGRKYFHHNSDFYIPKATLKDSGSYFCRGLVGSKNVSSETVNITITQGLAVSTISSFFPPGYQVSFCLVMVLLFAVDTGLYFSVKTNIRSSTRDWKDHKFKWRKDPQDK

T3 sequence (P08637 17-208 limits assumed): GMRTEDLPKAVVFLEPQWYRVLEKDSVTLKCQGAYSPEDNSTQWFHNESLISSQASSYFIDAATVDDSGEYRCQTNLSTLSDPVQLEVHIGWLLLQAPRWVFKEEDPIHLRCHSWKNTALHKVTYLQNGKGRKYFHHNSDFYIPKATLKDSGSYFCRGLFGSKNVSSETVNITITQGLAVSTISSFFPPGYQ
T1 sequence (P02745 23-245 limits assumed, chain 1 of 3): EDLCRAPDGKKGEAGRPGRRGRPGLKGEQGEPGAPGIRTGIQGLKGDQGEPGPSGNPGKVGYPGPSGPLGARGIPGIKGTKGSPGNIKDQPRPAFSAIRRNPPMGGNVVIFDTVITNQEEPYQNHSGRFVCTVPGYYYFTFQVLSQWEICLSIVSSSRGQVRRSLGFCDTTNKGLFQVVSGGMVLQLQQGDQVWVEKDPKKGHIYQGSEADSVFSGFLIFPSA
T1 sequence (P02746 28-253 limits assumed, chain 2 of 3): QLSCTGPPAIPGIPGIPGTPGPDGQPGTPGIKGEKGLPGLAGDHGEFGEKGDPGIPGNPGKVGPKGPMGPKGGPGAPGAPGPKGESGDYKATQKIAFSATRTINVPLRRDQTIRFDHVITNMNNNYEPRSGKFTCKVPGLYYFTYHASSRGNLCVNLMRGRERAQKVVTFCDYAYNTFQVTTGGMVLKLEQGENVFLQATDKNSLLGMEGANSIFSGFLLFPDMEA
T1 sequence (P02747 29-245 limits assumed, chain 3 of 3): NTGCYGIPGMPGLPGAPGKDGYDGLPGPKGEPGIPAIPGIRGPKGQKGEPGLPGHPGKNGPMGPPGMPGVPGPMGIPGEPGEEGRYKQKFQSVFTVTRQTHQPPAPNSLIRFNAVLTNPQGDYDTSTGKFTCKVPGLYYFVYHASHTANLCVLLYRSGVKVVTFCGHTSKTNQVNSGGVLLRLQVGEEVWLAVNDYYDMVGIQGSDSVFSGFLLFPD

B1: exemplified IgG bispecific antibody (anti-TNFα / anti-IL23p19) (bispecific antibody)
heavy 1: not shown
light 1: not shown
heavy 2: QVQLVQSGAEVKKPGSSVKVSCKASGYPFTRYVMHWVRKAPGQGLEWMGYINPYNDGVNYNEEFKGRVTITADTSTSTAYMELSSLRSEDTAVYYCARNWDTGLWGQGTTVTVSSASTKGPSVFPLAPSSKSTSGGTAALGCLVKDYFPEPVTVSWNSGALTSGVATGPAVLQSSGLYSLSSVVTVPSSSLGTQTYICNVNHKPSNTKVDKKVEPKSCDKTHTCPPCPAPELLGGPSVFLFPPKPKDTLMISRTPEVTCVVVDVSHEDPEVKFNWYVDGVEVHNAKTKPREEQYNSTYRVVSVLTVLHQDWLNGKEYKCKVSNKALPAPIEKTISKAKGQPREPQVSTLPPSREEMTKNQVSLMCLVYGFYPSDIAVEWESNGQPENNYKTTPPVLDSDGSFFLYSVLTVDKSRWQQGNVFSCSVMHEALHNHYTQKSLSLSPG
light 2: RIQMTQSPSSLSASVGDRVTITCKASDHIGKFLTWYQDKPGKAPKLLIYGATSKLTGVPSRFSGSGSGTDFTLTISSLQPEDFATYYCQQYWSTPFTFGGGTKVEIKGQPKAAPSVTLFPPSSEELQANKATLVCYISDFYPGAVTVAWKADSSPVKAGVETTTPSKQSNNKYAAWSYLSLTPEQWKSHRSYSCQVTHEGSTVEKTVAPTEC
modifications: N-terminal glutamine (residue 1) may be converted to pyroglutamic acid; C-terminal lysine (residue 445) may be truncated post-translationally; C-terminal lysine (residue 451) may be truncated post-translationally
notes: Heterodimeric IgG1 of four different chains; also called exemplified bispecific antibody; IgG bispecific antibody of the present invention
Turning to B1, in assay [1], the binding result is listed as “binds”. Besides, the dissociation constant (Kd) with human FcγRI (CD64) worked out at 0.0648 nM; in the assay with human FcγRIIIa (CD16a), 260 nM; in the assay with human FcγRIIb (CD32b) it was 4000 nM; with human FcγRIIa (CD32a) it was 720 nM; with human IL-23 [5] it was 0.245 nM; in the assay with human TNFα [6], 0.0496 nM. The “IC50, inhibition of killing of L929 cells by CHO cells carrying non-cleavable membrane bound human TNFα (MTT)” value in [2] amounted to 3.99 nM. The “relative EC50, human complement-mediated effector function (CDC) on CHO cells carrying non-cleavable human membrane TNFα (T74E construct as internal standard = 1)” value in assay [2] was 0.74 relative to internal standard. Further, the “IC50, inhibition of IL-23-induced Stat 3 phosphorylation (luciferase) in Kit225 cells” value with human IL-23 [3] was 0.066 pM. Also, in the assay with human TNFα [4], the “IC50, inhibition of soluble human TNFα-induced killing of L929 cells (MTT)” value stood at 0.32 nM. The koff with human IL-23 [5] amounted to 0.000101 s⁻¹; with human TNFα [6] it was 0.000155 s⁻¹. Further, the results for the kon with human IL-23 [5] and in the assay with human TNFα [6] were 412000 M⁻¹ s⁻¹ and 3.1e+06 M⁻¹ s⁻¹, respectively. The “Relative EC50, induction of FcγRIIIa-mediated effector function (NFAT luciferase in Jurkat cells with CHO cells carrying non-cleavable human membrane TNFα; T74E construct as internal standard = 1)” value in assay [7] was 0.75 relative to internal standard.
